Laboratory results reported in publication PMC6719327 (Applied Microbiology and Biotechnology, 2019).

Experiments:
Conditions in all cases: one partner purified
[1] = biological target: T1, endothelin A receptor (ETaR) (Homo sapiens (assumed), UniProt P25101); test: flow cytometry on cells; purified scFv-His at 1 to 316 nM on ETaR-expressing CHO cells, 1 h at 4 °C; FITC-conjugated anti-His; Kd from the dose-response curve (GraphPad PRISM 5.0)
T1 construct: endothelin A receptor (ETaR), a GPCR; plasmid and cells were gifts from Gmax Biopharm LLC; also called GPCR; ETaR-expressing CHO cells; source: CHO cells stably expressing and displaying ETaR (provided by Gmax Biopharm LLC); on cells, and in vesicles prepared from them

[2] = biological target: T1, endothelin A receptor (ETaR); test: flow cytometry on cells; competition: unlabelled scFv at 0.01 to 316 nM against FITC-labeled wild-type anti-GPCR at L = 150 nM on ETaR-expressing CHO cells, 1 h at 4 °C; Ki = IC50/(1 + L/Kd)
[3] = biological target: T1, endothelin A receptor (ETaR); test: flow cytometry on cells; Ki of purified scFv-Fc on ETaR-expressing cells; tracer and L not told for this format
[4] = biological target: T1, endothelin A receptor (ETaR); test: flow cytometry on cells; competition of unlabelled full-length antibodies, obtained similarly as for scFv; L = 13 nM; Ki = IC50/(1 + L/Kd)
[5] = biological target: T1, endothelin A receptor (ETaR); test: flow cytometry on cells; purified full-length antibodies titrated on ETaR-expressing CHO cells as for scFv; PE-conjugated anti-IgG; Kd from the dose-response curve
[6] = biological target: T2, ETaR-GFP (UniProt P25101); test: flow cytometry on cells; cells expressing ETaR-GFP incubated with purified scFv-His for 30 min, then anti-his-PE antibody (Fig. 4b)
T2 construct: endothelin A receptor (ETaR) with GFP fused to its C-terminus (in cytosol); also called ETaR cells; ETaR-GFP cells; source: CHO cells stably expressing ETaR-GFP (provided by Gmax Biopharm LLC; clone S-33 for vesicles); on cells, and in vesicles prepared from them; not shown: GFP, C-terminal, kept

[7] = biological target: T1, endothelin A receptor (ETaR); test: flow cytometry on cells; competition of unlabelled full-length antibodies, obtained similarly as for scFv; L = 13 nM; Ki = IC50/(1 + L/Kd); remark: listed apart in the source
[8] = biological target: T2, ETaR-GFP; test: flow cytometry on cells; cells stably expressing ETaR-GFP incubated with purified full-length or scFv-Fc antibodies for 30 min, then PE-conjugated anti-IgG (Fig. 4c, 4d, 5b)

T1 sequence (P25101 21-427): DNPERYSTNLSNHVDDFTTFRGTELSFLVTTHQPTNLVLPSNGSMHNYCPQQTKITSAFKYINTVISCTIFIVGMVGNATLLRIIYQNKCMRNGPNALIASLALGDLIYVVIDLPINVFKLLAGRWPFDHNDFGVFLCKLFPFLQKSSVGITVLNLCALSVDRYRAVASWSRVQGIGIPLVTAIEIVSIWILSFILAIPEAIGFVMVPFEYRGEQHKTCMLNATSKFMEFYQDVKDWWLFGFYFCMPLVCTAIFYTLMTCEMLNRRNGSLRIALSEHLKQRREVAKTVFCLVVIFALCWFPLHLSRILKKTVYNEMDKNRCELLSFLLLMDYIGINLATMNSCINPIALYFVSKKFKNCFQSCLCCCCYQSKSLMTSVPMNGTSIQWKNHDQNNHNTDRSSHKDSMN
T2 sequence (P25101 21-427): as above

B1: anti-GPCR (ETaR) antibody 80H4, scFv-His, wild type (scFv, V domains shown)
VH: EVQLLESGGGLVQPGGSLRLSCAASGFTFSSYGMSWVRQAPGKGLEWVSAISTNGATAYYADSVKGRFTISRDNSKNTLYLQMNSLRAEDTAVYYCATEKGAMGYWGQGTLVTVSS
VL: DIVMTQTPLSLSVTPGQPASISCRSSQNIVHSTGNTYLEWYLQKPGQSPQLLIYKVSNRFSGVPDRFSGSGSGTDFTLKISRVEAEDVGVYYCFQGSHFPFTFGQGTKVEIK
notes: heavy-chain variable region of 80H4; (G4S)3 linker; light-chain variable region of 80H4; Order HV-(G4S)3-LV; made with a signal peptide (SP); also called WT; anti-GPCR-scFv-His; source: Expi293F, transfected, purified from supernatant (Ni-NTA); not shown: His tag, C-terminal, kept
- Kd [1]: 169 nM
- IC50 [2]: 568 nM
- Ki [2]: 300 nM

B2: anti-GPCR (ETaR) antibody 80H4, scFv-Fc, wild type (Fc fusion)
VH: EVQLLESGGGLVQPGGSLRLSCAASGFTFSSYGMSWVRQAPGKGLEWVSAISTNGATAYYADSVKGRFTISRDNSKNTLYLQMNSLRAEDTAVYYCATEKGAMGYWGQGTLVTVSS
VL: DIVMTQTPLSLSVTPGQPASISCRSSQNIVHSTGNTYLEWYLQKPGQSPQLLIYKVSNRFSGVPDRFSGSGSGTDFTLKISRVEAEDVGVYYCFQGSHFPFTFGQGTKVEIK
notes: heavy-chain variable region as in m3; (G4S)3 linker; light-chain variable region as in m3; also called wild-type scFv-Fc; anti-GPCR-scFv-Fc; source: Expi293F, transfected, purified from supernatant (Protein A); not shown: Fc, C-terminal, kept
- Ki [3]: 251 nM

B3: anti-GPCR (ETaR) antibody 80H4, scFv-His, mutant N28Y (scFv, V domains shown)
VH: EVQLLESGGGLVQPGGSLRLSCAASGFTFSSYGMSWVRQAPGKGLEWVSAISTNGATAYYADSVKGRFTISRDNSKNTLYLQMNSLRAEDTAVYYCATEKGAMGYWGQGTLVTVSS
VL: DIVMTQTPLSLSVTPGQPASISCRSSQYIVHSTGNTYLEWYLQKPGQSPQLLIYKVSNRFSGVPDRFSGSGSGTDFTLKISRVEAEDVGVYYCFQGSHFPFTFGQGTKVEIK
notes: heavy-chain variable region as in m3; (G4S)3 linker; light-chain variable region as in m3; source: Expi293F, transfected, purified from supernatant (Ni-NTA); not shown: His tag, C-terminal, kept
- Kd [1]: 83.5 nM
- IC50 [2]: 210 nM
- Ki [2]: 75.1 nM

B4: anti-GPCR (ETaR) antibody 80H4, full-length, mutant D73H (antibody, V domains shown)
VH: EVQLLESGGGLVQPGGSLRLSCAASGFTFSSYGMSWVRQAPGKGLEWVSAISTNGATAYYADSVKGRFTISRHNSKNTLYLQMNSLRAEDTAVYYCATEKGAMGYWGQGTLVTVSS
VL: DIVMTQTPLSLSVTPGQPASISCRSSQNIVHSTGNTYLEWYLQKPGQSPQLLIYKVSNRFSGVPDRFSGSGSGTDFTLKISRVEAEDVGVYYCFQGSHFPFTFGQGTKVEIK
notes: heavy-chain variable region as the heavy chain of m13; heavy-chain constant region as in m13; light-chain variable region as the light chain of m13; light-chain constant region as in m13; source: Expi293F, heavy and light chains co-expressed, purified from supernatant (Protein A); copies: 2 + 2
- IC50 [4]: 30.6 nM
- Ki [4]: 15.7 nM
- Kd [5]: 13.6 nM

B5: anti-GPCR (ETaR) antibody 80H4, scFv-His, mutant T113A-R38Q (scFv, V domains shown)
VH: EVQLLESGGGLVQPGGSLRLSCAASGFTFSSYGMSWVQQAPGKGLEWVSAISTNGATAYYADSVKGRFTISRDNSKNTLYLQMNSLRAEDTAVYYCATEKGAMGYWGQGTLVAVSS
VL: DIVMTQTPLSLSVTPGQPASISCRSSQNIVHSTGNTYLEWYLQKPGQSPQLLIYKVSNRFSGVPDRFSGSGSGTDFTLKISRVEAEDVGVYYCFQGSHFPFTFGQGTKVEIK
notes: heavy-chain variable region as in m3; (G4S)3 linker; light-chain variable region as in m3; also called T113A-R38Q scFv-His; source: Expi293F, transfected, purified from supernatant (Ni-NTA); not shown: His tag, C-terminal, kept
- binding result [6]: binds

B6: anti-GPCR (ETaR) antibody 80H4, scFv-His, mutant T113A-V64M (scFv, V domains shown)
VH: EVQLLESGGGLVQPGGSLRLSCAASGFTFSSYGMSWVRQAPGKGLEWVSAISTNGATAYYADSMKGRFTISRDNSKNTLYLQMNSLRAEDTAVYYCATEKGAMGYWGQGTLVAVSS
VL: DIVMTQTPLSLSVTPGQPASISCRSSQNIVHSTGNTYLEWYLQKPGQSPQLLIYKVSNRFSGVPDRFSGSGSGTDFTLKISRVEAEDVGVYYCFQGSHFPFTFGQGTKVEIK
notes: as for B3
- Kd [1]: 87 nM
- IC50 [2]: 227 nM
- Ki [2]: 83.4 nM

B7: anti-GPCR (ETaR) antibody 80H4, full-length, wild type (antibody, V domains shown)
VH: EVQLLESGGGLVQPGGSLRLSCAASGFTFSSYGMSWVRQAPGKGLEWVSAISTNGATAYYADSVKGRFTISRDNSKNTLYLQMNSLRAEDTAVYYCATEKGAMGYWGQGTLVTVSS
VL: DIVMTQTPLSLSVTPGQPASISCRSSQNIVHSTGNTYLEWYLQKPGQSPQLLIYKVSNRFSGVPDRFSGSGSGTDFTLKISRVEAEDVGVYYCFQGSHFPFTFGQGTKVEIK
notes: heavy-chain variable region of 80H4; heavy-chain constant region (HC); labelled by anti-human IgG; light-chain variable region of 80H4; light-chain constant region (LC); also called WT; full-length wild-type antibody; source: Expi293F, heavy and light chains co-expressed, purified from supernatant (Protein A); copies: 2 + 2
- IC50 [4]: 50.1 nM
- Ki [4]: 31.3 nM
- Kd [5]: 21.5 nM

B8: anti-GPCR (ETaR) antibody 80H4, full-length, mutant T113A-V64M-N28Y (antibody, V domains shown)
VH: EVQLLESGGGLVQPGGSLRLSCAASGFTFSSYGMSWVRQAPGKGLEWVSAISTNGATAYYADSMKGRFTISRDNSKNTLYLQMNSLRAEDTAVYYCATEKGAMGYWGQGTLVAVSS
VL: DIVMTQTPLSLSVTPGQPASISCRSSQYIVHSTGNTYLEWYLQKPGQSPQLLIYKVSNRFSGVPDRFSGSGSGTDFTLKISRVEAEDVGVYYCFQGSHFPFTFGQGTKVEIK
notes: heavy-chain variable region as the heavy chain of m13; heavy-chain constant region as in m13; light-chain variable region as the light chain of m13; light-chain constant region as in m13; also called T113A-V64M-N28Y mutant full-length antibody; source: Expi293F, heavy and light chains co-expressed, purified from supernatant (Protein A); copies: 2 + 2
- Ki [7]: 15.6 nM

B9: anti-GPCR (ETaR) antibody 80H4, full-length, mutant with six mutations (S115N-S30R-D73H combined with T113A-V64M-N28Y) (antibody, V domains shown)
VH: EVQLLESGGGLVQPGGSLRLSCAASGFTFRSYGMSWVRQAPGKGLEWVSAISTNGATAYYADSMKGRFTISRHNSKNTLYLQMNSLRAEDTAVYYCATEKGAMGYWGQGTLVAVNS
VL: DIVMTQTPLSLSVTPGQPASISCRSSQYIVHSTGNTYLEWYLQKPGQSPQLLIYKVSNRFSGVPDRFSGSGSGTDFTLKISRVEAEDVGVYYCFQGSHFPFTFGQGTKVEIK
notes: heavy-chain variable region as the heavy chain of m13; heavy-chain constant region as in m13; light-chain variable region as the light chain of m13; light-chain constant region as in m13; also called the mutant with these six mutations; the full-length antibody clone containing the 6 point mutations; source: Expi293F, heavy and light chains co-expressed, purified from supernatant (Protein A); …
- binding result [8]: binds

B10: anti-GPCR (ETaR) antibody 80H4, full-length, mutant S115N-S30R (antibody, V domains shown)
VH: EVQLLESGGGLVQPGGSLRLSCAASGFTFRSYGMSWVRQAPGKGLEWVSAISTNGATAYYADSVKGRFTISRDNSKNTLYLQMNSLRAEDTAVYYCATEKGAMGYWGQGTLVTVNS
VL: DIVMTQTPLSLSVTPGQPASISCRSSQNIVHSTGNTYLEWYLQKPGQSPQLLIYKVSNRFSGVPDRFSGSGSGTDFTLKISRVEAEDVGVYYCFQGSHFPFTFGQGTKVEIK
notes: as for B4
- IC50 [4]: 22.4 nM
- Ki [4]: 10.2 nM
- Kd [5]: 10.8 nM

B11: anti-GPCR (ETaR) antibody 80H4, full-length, mutant S115N-S30R-D73H (antibody, V domains shown)
VH: EVQLLESGGGLVQPGGSLRLSCAASGFTFRSYGMSWVRQAPGKGLEWVSAISTNGATAYYADSVKGRFTISRHNSKNTLYLQMNSLRAEDTAVYYCATEKGAMGYWGQGTLVTVNS
VL: DIVMTQTPLSLSVTPGQPASISCRSSQNIVHSTGNTYLEWYLQKPGQSPQLLIYKVSNRFSGVPDRFSGSGSGTDFTLKISRVEAEDVGVYYCFQGSHFPFTFGQGTKVEIK
notes: heavy-chain variable region as the heavy chain of m13; heavy-chain constant region as in m13; light-chain variable region as the light chain of m13; light-chain constant region as in m13; also called S115N-D73H-S30R; source: Expi293F, heavy and light chains co-expressed, purified from supernatant (Protein A); copies: 2 + 2
- IC50 [4]: 16 nM
- Ki [4]: 6.2 nM
- Kd [5]: 8.27 nM

B12: anti-GPCR (ETaR) antibody 80H4, scFv-Fc, mutant T113A-V64M-N28Y (Fc fusion)
VH: EVQLLESGGGLVQPGGSLRLSCAASGFTFSSYGMSWVRQAPGKGLEWVSAISTNGATAYYADSMKGRFTISRDNSKNTLYLQMNSLRAEDTAVYYCATEKGAMGYWGQGTLVAVSS
VL: DIVMTQTPLSLSVTPGQPASISCRSSQYIVHSTGNTYLEWYLQKPGQSPQLLIYKVSNRFSGVPDRFSGSGSGTDFTLKISRVEAEDVGVYYCFQGSHFPFTFGQGTKVEIK
notes: heavy-chain variable region as in m3; (G4S)3 linker; light-chain variable region as in m3; also called mutant scFv-Fc; source: Expi293F, transfected, purified from supernatant (Protein A); not shown: Fc, C-terminal, kept
- Ki [3]: 40.2 nM

B13: anti-GPCR (ETaR) antibody 80H4, scFv-His, mutant T113A-V64M-N28Y (scFv, V domains shown)
VH: EVQLLESGGGLVQPGGSLRLSCAASGFTFSSYGMSWVRQAPGKGLEWVSAISTNGATAYYADSMKGRFTISRDNSKNTLYLQMNSLRAEDTAVYYCATEKGAMGYWGQGTLVAVSS
VL: DIVMTQTPLSLSVTPGQPASISCRSSQYIVHSTGNTYLEWYLQKPGQSPQLLIYKVSNRFSGVPDRFSGSGSGTDFTLKISRVEAEDVGVYYCFQGSHFPFTFGQGTKVEIK
notes: heavy-chain variable region as in m3; (G4S)3 linker; light-chain variable region as in m3; Combination of N28Y and T113A-V64M made by the authors; source: Expi293F, transfected, purified from supernatant (Ni-NTA); not shown: His tag, C-terminal, kept
- Kd [1]: 22.4 nM
- IC50 [2]: 170 nM
- Ki [2]: 22.1 nM

B14: anti-GPCR (ETaR) antibody 80H4, scFv-His, mutant R38Q (scFv, V domains shown)
VH: EVQLLESGGGLVQPGGSLRLSCAASGFTFSSYGMSWVQQAPGKGLEWVSAISTNGATAYYADSVKGRFTISRDNSKNTLYLQMNSLRAEDTAVYYCATEKGAMGYWGQGTLVTVSS
VL: DIVMTQTPLSLSVTPGQPASISCRSSQNIVHSTGNTYLEWYLQKPGQSPQLLIYKVSNRFSGVPDRFSGSGSGTDFTLKISRVEAEDVGVYYCFQGSHFPFTFGQGTKVEIK
notes: as for B3
- binding result [6]: binds
